Like-named read-outs stand apart in the source and are kept apart here. Where no end group is shown, it is not given here.
T1: Peptide-65 (cysteine pairing not given here; also: biotinylated, site not given here)
T1 construct: mask peptide for the CD3 scFv
T1 peptide: QGCGTIADPEPHCW

T2: Peptide-66 (cysteine pairing not given here; also: biotinylated, site not given here)
T2 construct: mask peptide for the CD3 scFv
T2 peptide: GSQCLGPEWEVCPY

T3: Peptide-67 (cysteine pairing not given here; also: biotinylated, site not given here)
T3 construct: mask peptide for the CD3 scFv
T3 peptide: VYCGPEFDESVGCM

T4: Peptide-68 (cysteine pairing not given here; also: biotinylated, site not given here)
T4 construct: mask peptide for the CD3 scFv
T4 peptide: DWCWYSPDNDGLCD

T5: Peptide-69 (cysteine pairing not given here; also: biotinylated, site not given here)
T5 construct: mask peptide for the CD3 scFv
T5 peptide: SECLVDLQSDPCYW

T6: Peptide-71 (cysteine pairing not given here; also: biotinylated, site not given here)
T6 construct: mask peptide for the CD3 scFv
T6 peptide: VDCGPDGDESILCY

T7: Peptide-72 (cysteine pairing not given here; also: biotinylated, site not given here)
T7 construct: mask peptide for the CD3 scFv
T7 peptide: AYCGPEFDESVGCM

T8: Peptide-74 (cysteine pairing not given here; also: biotinylated, site not given here)
T8 construct: mask peptide for the CD3 scFv
T8 peptide: ASQCLGPEWEVCPY

T9: Peptide-75 (cysteine pairing not given here; also: biotinylated, site not given here)
T9 construct: mask peptide for the CD3 scFv
T9 peptide: GSACLGPEWEVCPY

T10: Peptide-73 (cysteine pairing not given here; also: biotinylated, site not given here)
T10 construct: mask peptide for the CD3 scFv
T10 peptide: VYCGPEFDESVGCA

T11: Peptide-70 (cysteine pairing not given here; also: biotinylated, site not given here)
T11 construct: mask peptide for the CD3 scFv
T11 peptide: YLCGPDGDETLACY


Legend:
[1] = target: T12, CD3 (biotinylated CD3 antigen) (human, UniProt P07766 23-126, limits assumed, biotinylated (site not stated)); assay: ELISA, TCE on captured biotin-CD3
T12 construct: also called CD3ε; human CD3
T12 sequence (P07766 23-126 limits assumed): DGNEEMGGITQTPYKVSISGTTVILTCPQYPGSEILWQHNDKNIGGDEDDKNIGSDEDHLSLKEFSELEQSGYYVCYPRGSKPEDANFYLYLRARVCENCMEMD

Peptide-65 [2] = target: T1, Peptide-65; assay: ELISA, TCE on captured biotin-peptide
Description: (§1) Binding was measured in a standard ELISA format. […] The TROP2 TCE constructs diluted in buffer were then added to the peptide coated plates. Bound TCEs were detected using a standard horse radish peroxidase conjugate secondary antibody. The ELISA signal was plotted versus the log-scale concentration of TCE. The concentrations of TCE required to observe half maximal binding signal (EC₅₀s) were calculated using Graphpad Prism software.

Peptide-66 [3] = target: T2, Peptide-66; assay: ELISA, TCE on captured biotin-peptide
Description: as §1

Peptide-67 [4] = target: T3, Peptide-67; assay: ELISA, TCE on captured biotin-peptide
Description: as §1

Peptide-68 [5] = target: T4, Peptide-68; assay: ELISA, TCE on captured biotin-peptide
Description: as §1

Peptide-69 [6] = target: T5, Peptide-69; assay: ELISA, TCE on captured biotin-peptide
Description: as §1

Peptide-71 [7] = target: T6, Peptide-71; assay: ELISA, TCE on captured biotin-peptide
Description: as §1

Peptide-72 [8] = target: T7, Peptide-72; assay: ELISA, TCE on captured biotin-peptide
Description: as §1

Peptide-74 [9] = target: T8, Peptide-74; assay: ELISA, TCE on captured biotin-peptide
Description: as §1

Peptide-75 [10] = target: T9, Peptide-75; assay: ELISA, TCE on captured biotin-peptide
Description: as §1

Peptide-73 [11] = target: T10, Peptide-73; assay: ELISA, TCE on captured biotin-peptide
Description: as §1

[12] = target: T12, CD3 (biotinylated CD3 antigen); assay: ELISA, TCE on captured biotin-CD3; remark: listed apart in the source
Description: as §1

Peptide-66 [13] = target: T2, Peptide-66; assay: ELISA, TCE on captured biotin-peptide
Description: as §1

Peptide-67 [14] = target: T3, Peptide-67; assay: ELISA, TCE on captured biotin-peptide
Description: as §1

Peptide-68 [15] = target: T4, Peptide-68; assay: ELISA, TCE on captured biotin-peptide
Description: as §1

Peptide-69 [16] = target: T5, Peptide-69; assay: ELISA, TCE on captured biotin-peptide
Description: as §1

Peptide-70 = target: T11, Peptide-70; assay: ELISA, TCE on captured biotin-peptide
Description: as §1

Peptide-71 [17] = target: T6, Peptide-71; assay: ELISA, TCE on captured biotin-peptide
Description: as §1

Peptide-72 [18] = target: T7, Peptide-72; assay: ELISA, TCE on captured biotin-peptide
Description: as §1

Peptide-74 [19] = target: T8, Peptide-74; assay: ELISA, TCE on captured biotin-peptide
Description: as §1

Peptide-75 [20] = target: T9, Peptide-75; assay: ELISA, TCE on captured biotin-peptide
Description: as §1

[21] = target: T12, CD3 (biotinylated CD3 antigen); assay: ELISA: biotinylated CD3 captured on neutravidin plates, TCE titrated, HRP secondary antibody
Description: Wild-type and alanine mutated T cell engager (TCE) constructs were evaluated for their ability to bind CD3. The alanine mutated TCEs include single alanine mutations in the CDR3 light chain or CDR3 heavy chain of the CD3 binding domain. Binding to CD3 was evaluated using an ELISA format. […] TCE constructs diluted in buffer were then added to the CD3 captured plates. TCE binding was detected using a standard horse radish peroxidase secondary antibody. The concentration of TCE required to achieve 50% maximal signal (EC₅₀) was calculated.

Peptide-65 [22] = target: T1, Peptide-65; assay: ELISA, TCE on captured biotin-peptide
Description: as §1

Peptide-73 [23] = target: T10, Peptide-73; assay: ELISA, TCE on captured biotin-peptide
Description: as §1

Row | Binder | EC50 (Peptide-73 [11]) [nM] | EC50 [12] [nM] | EC50 (Peptide-66 [13]) [nM] | EC50 (Peptide-67 [14]) [nM] | EC50 (Peptide-68 [15]) [nM] | EC50 (Peptide-69 [16]) [nM] | EC50 (Peptide-70) [nM] | EC50 (Peptide-71 [17]) [nM] | EC50 (Peptide-72 [18]) [nM] | EC50 (Peptide-74 [19]) [nM] | EC50 (Peptide-75 [20]) [nM] | EC50 (Peptide-65 [22]) [nM] | other results
1 | TCE-10 (anti-CD3 scFv R100A; anti-TROP2 wt) (bispecific antibody, scFv on the Fab heavy chain; also called TCE-10 (R100A)) light: DIQLTQSPSSLSASVGDRVSITCKASQDVSIAVAWYQQKPGKAPKLLIYSASYRYTGVPDRFSGSGSGTDFTLTISSLQPEDFAVYYCQQHYITPLTFGAGTKVEIKRTVAAPSVFIFPPSDEQLKSGTASVVCLLNNFYPREAKVQWKVDNALQSGNSQESVTEQDSKDSTYSLSSTLTLSKADYEKHKVYACEVTHQGLSSPVTKSFNRGEC heavy: not shown |  |  |  |  |  |  |  |  |  |  |  |  | EC50 [1]: 0.35 nM; EC50 (Peptide-65 [2]): 473 nM; EC50 (Peptide-66 [3]): 0.58 nM; EC50 (Peptide-67 [4]): 1.76 nM; EC50 (Peptide-68 [5]): 1.78 nM; EC50 (Peptide-69 [6]): 8.73 nM; EC50 (Peptide-71 [7]): 0.63 nM; EC50 (Peptide-72 [8]): 1.85 nM; EC50 (Peptide-74 [9]): 0.68 nM; EC50 (Peptide-75 [10]): 0.76 nM
2 | TCE-21 (anti-CD3 scFv Y111A; anti-TROP2 wt) (bispecific antibody, scFv on the Fab heavy chain; also called TCE-21 (Y111A)) light: DIQLTQSPSSLSASVGDRVSITCKASQDVSIAVAWYQQKPGKAPKLLIYSASYRYTGVPDRFSGSGSGTDFTLTISSLQPEDFAVYYCQQHYITPLTFGAGTKVEIKRTVAAPSVFIFPPSDEQLKSGTASVVCLLNNFYPREAKVQWKVDNALQSGNSQESVTEQDSKDSTYSLSSTLTLSKADYEKHKVYACEVTHQGLSSPVTKSFNRGEC heavy: not shown |  | 592 | 49.1 | 77.7 | 381 | 572 | 11.9 | 106 | 76.9 | 64.2 | 95.6 | 1080 | 

Further lines, with some results ahead:

Row | EC50 (Peptide-73 [11]) [nM] | EC50 [12] [nM] | EC50 (Peptide-66 [13]) [nM] | EC50 (Peptide-67 [14]) [nM] | EC50 (Peptide-68 [15]) [nM] | EC50 (Peptide-69 [16]) [nM] | EC50 (Peptide-70) [nM] | EC50 (Peptide-71 [17]) [nM] | EC50 (Peptide-72 [18]) [nM] | EC50 (Peptide-74 [19]) [nM] | EC50 (Peptide-75 [20]) [nM] | EC50 (Peptide-65 [22]) [nM] | Binder | other results
3 | 0.35 |  |  |  |  |  |  |  |  |  |  |  | TCE-27 (anti-CD3 scFv Y234A; anti-TROP2 wt) (bispecific antibody, scFv on the Fab heavy chain) light: DIQLTQSPSSLSASVGDRVSITCKASQDVSIAVAWYQQKPGKAPKLLIYSASYRYTGVPDRFSGSGSGTDFTLTISSLQPEDFAVYYCQQHYITPLTFGAGTKVEIKRTVAAPSVFIFPPSDEQLKSGTASVVCLLNNFYPREAKVQWKVDNALQSGNSQESVTEQDSKDSTYSLSSTLTLSKADYEKHKVYACEVTHQGLSSPVTKSFNRGEC heavy: not shown | 
4 | 7.03 | 24 | 6.34 | 5.96 | 2.29 | 0.29 | 8 | 112 | 5.66 | 5.33 | 7.08 |  | TCE-31 (anti-CD3 scFv W238A; anti-TROP2 wt) (bispecific antibody, scFv on the Fab heavy chain; also called TCE-31 (W238A)) light: DIQLTQSPSSLSASVGDRVSITCKASQDVSIAVAWYQQKPGKAPKLLIYSASYRYTGVPDRFSGSGSGTDFTLTISSLQPEDFAVYYCQQHYITPLTFGAGTKVEIKRTVAAPSVFIFPPSDEQLKSGTASVVCLLNNFYPREAKVQWKVDNALQSGNSQESVTEQDSKDSTYSLSSTLTLSKADYEKHKVYACEVTHQGLSSPVTKSFNRGEC heavy: not shown | EC50 [21]: 8.65 nM
5 |  | 0.95 | 26.4 | 10.5 | 794 |  | 0.59 | 4.87 | 11.2 | 23.4 | 38.2 | 220 | TCE-22 (anti-CD3 scFv W112A; anti-TROP2 wt) (bispecific antibody, scFv on the Fab heavy chain; also called TCE-22 (W112A)) light: DIQLTQSPSSLSASVGDRVSITCKASQDVSIAVAWYQQKPGKAPKLLIYSASYRYTGVPDRFSGSGSGTDFTLTISSLQPEDFAVYYCQQHYITPLTFGAGTKVEIKRTVAAPSVFIFPPSDEQLKSGTASVVCLLNNFYPREAKVQWKVDNALQSGNSQESVTEQDSKDSTYSLSSTLTLSKADYEKHKVYACEVTHQGLSSPVTKSFNRGEC heavy: not shown | EC50 (Peptide-73 [23]): 12.2 nM

Reference: US20230357429A1 (JANUX THERAPEUTICS, published 2023)
